According to PMC8020655:

Target: His6-PopA_(R357G) labelled with Atto-488 (Caulobacter crescentus)
Assay: MST

Kd: 5.1 µM
Substance: His6-SmrF (from UniProt A0A0H3C860 1-122) (natural protein)
